Biological target: HRT1-REF bridging protein (HRBP) (Hevea brasiliensis)

prenyltransferase activity of HRT1/HRBP-nanodisc complexes, raw [14C]IPP incorporation (12.5 nCi [14C]IPP in the reaction): 12200 dpm
Substance: Hevea rubber transferase 1 (HRT1) (enzyme)
